# Laboratory results published in patent publication US7604993B2, “Combined regulation of neural cell production” (Stem Cell Therapeutics Inc., priority 2001, dated 2009).
# “Also recorded” adds a separate entry of the source.
# B1: prolactin: prolactin, first infusion days 1-7, then CSF (Group 3) (protein, UniProt P01236 29-227, looked up)
# Prolactin: LPICPGGAARCQVTLRDLFDRAVVLSHYIHNLSSEMFSEFDKRYTHGRGFITKAINSCHTSSLATPEDKEQAQQMNQKDFLSLIVSILRSWNEPLYHLVTEVRGMQEAPEAILSKAVEIEEQTKRLLEGMELIVSQVHPETKENEIYPVWSGLPSLQMADEESRLSAYYNLLHCLRRDSHKIDNYLKLLKCRIIHNNNC
# B2: CNTF: rat recombinant CNTF, ciliary neurotrophic factor (protein, UniProt P20294 1-200, looked up)
# Ciliary neurotrophic factor: MAFAEQTPLTLHRRDLCSRSIWLARKIRSDLTALMESYVKHQGLNKNINLDSVDGVPVASTDRWSEMTEAERLQENLQAYRTFQGMLTKLLEDQRVHFTPTEGDFHQAIHTLMLQVSAFAYQLEELMVLLEQKIPENEADGMPATVGDGGLFEKKLWGLKVLQELSQWTVRSIHDLRVISSHQMGISALESHYGAKDKQM
# Experiments:
# [1] = Forelimb inhibition test in focal ischemic injury (stroke) model; assay type: in vivo; details: rats with focal ischemic injury; first infusion days 1-7, second infusion days 8-14
# Source text: Adult male Long-Evans rats (250-350 g) were obtained from Charles River Breeding Farms and were adapted to the colony for two weeks prior to any treatment. A week before surgery the rats were given a baseline testing on the behavioral tests.
# The animals for the stroke study received unilateral devascularization of the sensorimotor cortex. Using Isoflurane anesthesia, the skin was incised and retracted and the overlying fascia were removed from the skull. A skull opening was made at the following coordinates, taking care not to damage the dura: AP +4.0 to −2.0; L 1.5 to 4 (the parasagittal ridge; Kolb et al., 1997). The dura was cut and retracted from the skull opening. A cotton swab soaked in sterile saline was gently rubbed across the exposed pia and the vessels were removed. A hole was then drilled in the contralateral hemisphere to provide an opening for the cannulae attached to the osmotic minipump at AP −0.5; L 1.5. […]
# Six days later the animals were assessed using the behavioral test. […]
# In normal rats, swimming is accomplished by propulsion from the hind limbs. […] Inhibition of the forelimbs was assessed by filming animals while swimming. […]
# The animals then received various test factors, and the effects of these factors on the forelimb inhibition test and brain anatomy were assessed. […]
# [2] = test system: migrating neuronal progenitor cells; experiment: Brain anatomical analysis (Cresyl Violet, Doublecortin) in focal ischemic injury (stroke) model; assay type: in vivo; details: rats with focal ischemic injury, end of week 6
# Source text: The animals for the stroke study received unilateral devascularization of the sensorimotor cortex. Using Isoflurane anesthesia, the skin was incised and retracted and the overlying fascia were removed from the skull. A skull opening was made at the following coordinates, taking care not to damage the dura: AP +4.0 to −2.0; L 1.5 to 4 (the parasagittal ridge; Kolb et al., 1997). The dura was cut and retracted from the skull opening. A cotton swab soaked in sterile saline was gently rubbed across the exposed pia and the vessels were removed. A hole was then drilled in the contralateral hemisphere to provide an opening for the cannulae attached to the osmotic minipump at AP −0.5; L 1.5. An osmotic minipump was placed under the skin between the shoulder blades and a tube connected under the skin to the cannulae, which was attached to the skull with fast-drying cement. Once hemostasis had been achieved the scalp was sutured closed with 5-O sterile suture. The animals were given a single injection of Banamine (an analgesic) and returned to their home cage. Sham animals received only anesthesia, the bone opening, and the skin was incised and sutured. […] The animals then received various test factors, and the effects of these factors on the forelimb inhibition test and brain anatomy were assessed. […]
# [3] = test system: neural stem cells in the subventricular zone; experiment: Subcutaneous administration, number of neural stem cells in the subventricular zone; assay type: in vivo
# neural stem cells [4] = experiment: Number of EGF-responsive neural stem cells (primary neurospheres) after infusion into the lateral ventricle; assay type: in vivo, mice
# Source text: Thus, we infused either CNTF or EPO into the lateral ventricles of adult mice for six days, after which we either removed the entire adult ependyma/subependyma to examine the total number of EGF-responsive NSCs or examined the in vivo production of neuronal precursors. […] Therefore, EGF-responsive NSCs turn over continuously in vivo, a sub-population of which spontaneously differentiates into restricted glial precursors, while another sub-population is directed to the neuronal restricted linage by EPO.
# The protocols for neural stem cell culture are described in detail in U.S. Pat. No. 5,750,376 or Shingo et al., 2001. Briefly, embryonic neural stem cells were prepared from E14 medial and lateral ganglionic eminences. Adult neural stem cells were prepared from the subventricular zone of adult mice. The tissue was cultured in basal medium containing 20 ng/ml EGF, or other growth factors as indicated in each case, to form neurospheres. The composition of the basal medium is as follows: DMEM/F12 (1:1); glucose (0.6%); glutamine (2 mM); sodium bicarbonate (3 mM); HEPES (5 mM); insulin (25 μg/ml); transferrin (100 μg/ml); progesterone ([…]); putrescine (60 μM); and selenium chloride (30 nM). […]
# neural stem cells [5] = experiment: BrdU labelling of proliferating cells in infused animals; assay type: in vivo, mice; details: BrdU also given to the infused animals
Molecule,forepaw inhibition / motor function in the forelimb inhibition test [1],doublecortin staining / doublecortin positive cells in the brain [2],delivery by subcutaneous administration to modulate the number of neural stem cells in the subventricular zone [3],increase of the number of primary neurospheres that can be obtained from the brain (neural stem cells [4]; infusion into adult mice for six days),increase in the number of NSCs (neural stem cells [4]; infusion into lateral ventricles of adult mice for six days),number of BrdU positive cells (neural stem cells [5])
B1,improvement of motor functions; also recorded: acted to correct abnormal positioning of the forelimb during swimming; also recorded: recovery from a representative symptom of stroke; also recorded: improved the motor function,high degree of doublecortin staining,effectively delivered,,,
B2,,,,about 25%,20-25%,did not increase
